The target of data set [1] is T1, Escherichia coli DnaB replicative helicase (wild-type) (E. coli, UniProt P0ACB0 1-471).
T1 construct: DnaB replicative DNA helicase, E. coli, wild-type; The introduction describes DnaB as a closed ring-shaped hexamer; also called DnaB helicase
Put plainly: SEC; 10 nmol DnaB and 12 nmol DnaC (1.2:1 DnaC:DnaB) in 20 mM Tris-HCl pH 8.5, 0.2 M NaCl, 5 mM MgCl2, 1 mM BME, 1 mM ATP; analytical size exclusion column (Increase 10/300 GL); peak fractions analysed by PAGE for DnaB and DnaC. Particulars: both partners purified. (In gel filtration, larger molecules generally elute earlier.)

The next data set deals with T2, DnaC (wild-type) (Escherichia coli, UniProt P0AEF0 1-245).
T2 sequence: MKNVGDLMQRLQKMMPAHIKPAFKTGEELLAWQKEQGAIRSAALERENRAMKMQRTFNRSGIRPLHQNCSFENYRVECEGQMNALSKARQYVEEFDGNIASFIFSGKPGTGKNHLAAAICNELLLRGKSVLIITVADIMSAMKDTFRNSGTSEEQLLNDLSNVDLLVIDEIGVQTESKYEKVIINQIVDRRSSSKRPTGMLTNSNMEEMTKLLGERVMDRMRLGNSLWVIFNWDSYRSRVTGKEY
Put plainly: fluorescence anisotropy; 5 mM Mg2+, 2 mM ATP; 50 mM HEPES-KOH pH 7.5, 125 mM KCl, 10% glycerol, 5 mM MgCl2, 2 mM ATP, 2 mM DTT, 0.1 mg/ml BSA, 10 nM DNA, 0-50 uM DnaC; 37 C 15 min, read at 25 C; saturation. Particulars: protein: recombinant; tags: 6XHis-MBP removed by TEV; single strand.

For a further data set, the target named is T3, DnaC 809 (Escherichia coli, UniProt P0AEF0 1-245, E176G).
T3 sequence: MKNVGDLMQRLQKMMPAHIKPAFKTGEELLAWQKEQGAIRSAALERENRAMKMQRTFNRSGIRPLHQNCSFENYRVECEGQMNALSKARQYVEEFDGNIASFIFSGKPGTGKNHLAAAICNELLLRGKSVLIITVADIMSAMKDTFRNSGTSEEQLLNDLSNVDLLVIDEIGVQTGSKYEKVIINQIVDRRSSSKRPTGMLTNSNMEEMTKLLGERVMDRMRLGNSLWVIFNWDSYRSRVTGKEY
The experiment in a line: fluorescence anisotropy; 5 mM Mg2+, 2 mM ATP; similar to wild-type; 50 mM HEPES-KOH pH 7.5, 125 mM KCl, 10% glycerol, 5 mM MgCl2, 2 mM ATP, 2 mM DTT, 0.1 mg/ml BSA, 10 nM DNA, 0-50 uM DnaC; 37 C 15 min, read at 25 C; saturation. The settings on record: protein: recombinant; tags: 6XHis-MBP, TEV cleaved; periplasmic localization signal on expression construct; single strand. Background: Fluorescence polarisation rises when a labelled molecule tumbles more slowly, as on binding a larger partner.

The target in a further data set is T4, DnaC 1331 (Escherichia coli, UniProt P0AEF0 1-245, A84T).
T4 sequence: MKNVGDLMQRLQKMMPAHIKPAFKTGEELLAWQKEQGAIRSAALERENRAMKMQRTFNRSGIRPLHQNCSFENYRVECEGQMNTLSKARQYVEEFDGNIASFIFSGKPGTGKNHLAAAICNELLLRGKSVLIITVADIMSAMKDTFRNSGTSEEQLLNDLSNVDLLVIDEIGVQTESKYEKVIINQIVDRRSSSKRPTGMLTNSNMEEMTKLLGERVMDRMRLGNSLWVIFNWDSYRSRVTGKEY
The description is as above. Particulars: protein: recombinant; tags: 6XHis-MBP, TEV cleaved; periplasmic localization signal on expression construct; single strand.

A further data set concerns the target T5, DnaC 809,820 (Escherichia coli, UniProt P0AEF0 1-245, E176G;K178N).
T5 sequence: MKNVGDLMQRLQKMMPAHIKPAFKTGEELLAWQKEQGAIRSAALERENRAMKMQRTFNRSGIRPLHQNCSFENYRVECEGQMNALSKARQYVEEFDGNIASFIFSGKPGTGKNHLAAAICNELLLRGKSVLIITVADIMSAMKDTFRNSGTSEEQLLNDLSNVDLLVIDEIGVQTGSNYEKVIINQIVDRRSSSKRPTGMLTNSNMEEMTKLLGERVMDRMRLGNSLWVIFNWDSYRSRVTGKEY
The data set is described as above. The settings on record: protein: recombinant; tags: 6XHis-MBP, TEV cleaved; periplasmic localization signal on expression construct; single strand.

Experimental findings from PMC11087952, “Biochemical characterization of Escherichia coli DnaC variants that alter DnaB helicase loading onto DNA” (The Journal of Biological Chemistry, 2024) are described below.

T1 sequence (P0ACB0 whole entry): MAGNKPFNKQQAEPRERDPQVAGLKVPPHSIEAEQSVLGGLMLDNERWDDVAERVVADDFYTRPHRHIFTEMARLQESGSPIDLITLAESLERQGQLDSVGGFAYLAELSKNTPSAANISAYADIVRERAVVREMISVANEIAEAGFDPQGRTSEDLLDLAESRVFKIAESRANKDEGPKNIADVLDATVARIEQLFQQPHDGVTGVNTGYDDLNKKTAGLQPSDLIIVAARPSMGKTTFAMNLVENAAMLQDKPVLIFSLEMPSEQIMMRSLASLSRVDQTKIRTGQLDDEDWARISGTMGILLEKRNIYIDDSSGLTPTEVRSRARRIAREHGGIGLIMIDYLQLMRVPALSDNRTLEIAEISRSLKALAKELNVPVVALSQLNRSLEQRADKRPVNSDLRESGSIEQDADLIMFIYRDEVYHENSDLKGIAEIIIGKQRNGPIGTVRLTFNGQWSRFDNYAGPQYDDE

B1: DnaC 809 (E176G) (natural protein, E. coli, UniProt P0AEF0 1-245, looked up)
chain: MKNVGDLMQRLQKMMPAHIKPAFKTGEELLAWQKEQGAIRSAALERENRAMKMQRTFNRSGIRPLHQNCSFENYRVECEGQMNALSKARQYVEEFDGNIASFIFSGKPGTGKNHLAAAICNELLLRGKSVLIITVADIMSAMKDTFRNSGTSEEQLLNDLSNVDLLVIDEIGVQTGSKYEKVIINQIVDRRSSSKRPTGMLTNSNMEEMTKLLGERVMDRMRLGNSLWVIFNWDSYRSRVTGKEY
notes: DnaC helicase loader, E. coli, with E176G; Point mutation introduced by site-directed mutagenesis; the allele was first isolated as a suppressor of priA deficiency; also called product of dnaC809
For the molecule B1, in data set [1], the binding result was “binds”.

B2: DnaC 809,820 (E176G, K178N) (natural protein, E. coli, UniProt P0AEF0 1-245, looked up)
chain: MKNVGDLMQRLQKMMPAHIKPAFKTGEELLAWQKEQGAIRSAALERENRAMKMQRTFNRSGIRPLHQNCSFENYRVECEGQMNALSKARQYVEEFDGNIASFIFSGKPGTGKNHLAAAICNELLLRGKSVLIITVADIMSAMKDTFRNSGTSEEQLLNDLSNVDLLVIDEIGVQTGSNYEKVIINQIVDRRSSSKRPTGMLTNSNMEEMTKLLGERVMDRMRLGNSLWVIFNWDSYRSRVTGKEY
notes: DnaC helicase loader, E. coli, with E176G and K178N; Point mutations introduced by site-directed mutagenesis; also called product of dnaC809,820
On to B2, for which the binding result in data set [1] is “binds”.

B3: DnaC 811 (I184F) (natural protein, E. coli, UniProt P0AEF0 1-245, looked up)
chain: MKNVGDLMQRLQKMMPAHIKPAFKTGEELLAWQKEQGAIRSAALERENRAMKMQRTFNRSGIRPLHQNCSFENYRVECEGQMNALSKARQYVEEFDGNIASFIFSGKPGTGKNHLAAAICNELLLRGKSVLIITVADIMSAMKDTFRNSGTSEEQLLNDLSNVDLLVIDEIGVQTESKYEKVIFNQIVDRRSSSKRPTGMLTNSNMEEMTKLLGERVMDRMRLGNSLWVIFNWDSYRSRVTGKEY
notes: DnaC helicase loader, E. coli, with I184F; Point mutation introduced by site-directed mutagenesis; also called product of dnaC811
In the case of B3, the binding result in data set [1] is on record as “binds”.
TTTTTTTTTTTTTTTTTTTT (ssDNA) [dT20]: the binding result with DnaC (wild-type), in the data set with DnaC 809, in the data set with DnaC 1331 and with DnaC 809,820 was “binds” in each case.
